Source: PMC11811016 (Nature Communications, 2025)

Target: T1, recombinant his-PGC-1α (mouse, UniProt O70343 1-797, labeled with red-tris-NTA 2nd generation His-tag labeling kit)
T1 sequence (looked up): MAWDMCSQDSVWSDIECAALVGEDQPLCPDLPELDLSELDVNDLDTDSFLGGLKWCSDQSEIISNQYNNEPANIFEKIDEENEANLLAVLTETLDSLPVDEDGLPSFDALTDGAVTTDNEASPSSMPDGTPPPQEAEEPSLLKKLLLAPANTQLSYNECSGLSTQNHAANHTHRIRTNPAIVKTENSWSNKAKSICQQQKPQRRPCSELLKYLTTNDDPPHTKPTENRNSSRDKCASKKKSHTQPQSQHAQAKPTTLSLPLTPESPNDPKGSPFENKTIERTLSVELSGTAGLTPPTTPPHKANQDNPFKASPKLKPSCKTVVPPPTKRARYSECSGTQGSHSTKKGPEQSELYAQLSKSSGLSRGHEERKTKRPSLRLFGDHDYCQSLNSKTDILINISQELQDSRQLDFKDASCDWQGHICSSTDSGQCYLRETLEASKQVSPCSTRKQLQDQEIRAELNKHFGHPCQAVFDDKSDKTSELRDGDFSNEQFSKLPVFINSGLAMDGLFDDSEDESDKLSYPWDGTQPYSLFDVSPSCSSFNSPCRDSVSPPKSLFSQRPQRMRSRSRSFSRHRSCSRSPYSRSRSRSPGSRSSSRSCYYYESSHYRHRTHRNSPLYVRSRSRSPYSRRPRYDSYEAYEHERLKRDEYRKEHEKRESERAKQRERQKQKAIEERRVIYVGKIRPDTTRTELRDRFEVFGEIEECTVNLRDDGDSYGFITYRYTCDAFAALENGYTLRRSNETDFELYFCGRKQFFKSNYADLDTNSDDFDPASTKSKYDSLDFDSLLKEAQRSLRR
Experiment: MST

B1: purified KMT5C protein (his tag cleaved) (enzyme)
chain: not shown
Question: For B1, which Kd is on record?
Answer: 1730 nM
